Measured values published in US20100151566A1.

Legend:
[1] = target: Isoform 121 of human VEGF-A (Peprotech) (human) (UniProt P15692); assay: ELISA on coated antigen, 20 µg/mL; negative control
[2] = target: P6447aa-VEGF fusion protein (human (VEGF part); Neisseria meningitidis (P64K part)); assay: as above
[3] = target: Isoform 121 of human VEGF-A (Peprotech) (human) (UniProt P15692); assay: ELISA, antigen coated at 5 µg/mL, KDR-Fc 0.5 µg/mL
[4] = target: Isoform 121 of human VEGF-A (Peprotech) (human) (UniProt P15692); assay: ELISA, antigen coated at 5 µg/mL, KDR-Fc 1.0 µg/mL
[5] = target: Isoform 121 of human VEGF-A (Peprotech) (human) (UniProt P15692); assay: ELISA, antigen coated at 5 µg/mL, KDR-Fc 0.25 µg/mL
[6] = target: Isoform 121 of human VEGF-A (Peprotech) (human) (UniProt P15692); assay: ELISA, antigen coated at 5 µg/mL, KDR-Fc 0.125 µg/mL

Chain of soluble human receptor KDR-Fc (Sigma) (P35968 20-764 limits assumed): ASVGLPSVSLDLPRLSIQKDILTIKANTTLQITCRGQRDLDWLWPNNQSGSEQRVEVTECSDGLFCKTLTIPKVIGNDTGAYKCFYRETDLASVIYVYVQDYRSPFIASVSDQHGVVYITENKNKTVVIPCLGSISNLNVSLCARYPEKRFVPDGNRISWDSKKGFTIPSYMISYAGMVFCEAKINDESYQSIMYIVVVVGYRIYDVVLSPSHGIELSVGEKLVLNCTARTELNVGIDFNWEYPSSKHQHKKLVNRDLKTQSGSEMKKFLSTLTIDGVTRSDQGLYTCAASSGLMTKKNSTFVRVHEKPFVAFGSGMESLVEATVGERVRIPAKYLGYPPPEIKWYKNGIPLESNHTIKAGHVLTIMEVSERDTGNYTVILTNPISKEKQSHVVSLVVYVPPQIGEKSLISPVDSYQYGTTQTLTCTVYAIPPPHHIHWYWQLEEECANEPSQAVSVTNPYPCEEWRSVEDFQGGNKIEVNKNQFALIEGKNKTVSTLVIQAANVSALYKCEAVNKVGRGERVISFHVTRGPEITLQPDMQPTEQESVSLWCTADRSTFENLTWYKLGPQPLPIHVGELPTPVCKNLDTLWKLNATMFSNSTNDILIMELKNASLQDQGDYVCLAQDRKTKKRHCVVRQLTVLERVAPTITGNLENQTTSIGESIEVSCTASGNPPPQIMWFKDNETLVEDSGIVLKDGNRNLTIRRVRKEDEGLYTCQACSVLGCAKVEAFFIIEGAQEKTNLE
Chain of Isoform 121 of human VEGF-A (Peprotech) (human) (P15692 other isoform, or with tags, fused parts or gaps): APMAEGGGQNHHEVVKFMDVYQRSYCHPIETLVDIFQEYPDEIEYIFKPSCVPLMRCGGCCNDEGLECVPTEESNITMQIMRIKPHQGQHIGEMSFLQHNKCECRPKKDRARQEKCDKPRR

Row | Substance | absorbance at 492 nm [1] | absorbance at 492 nm [2] | absorbance at 492 nm [3] | absorbance at 492 nm [4] | absorbance at 492 nm [5] | absorbance at 492 nm [6]
1 | TheraCIM (anti EGF receptor humanized IgG1 antibody; CIMAB SA, Havana) | 0.097 OD 492 nm | 0.112 OD 492 nm | – | – | – | –
2 | soluble human receptor KDR-Fc (Sigma) (from UniProt P35968 20-764) (Fc fusion) | – | – | 1.27 OD 492 nm | 1.48 OD 492 nm | 1.04 OD 492 nm | 0.76 OD 492 nm
